According to PMC2572730, “Structural Basis for the Recognition of Histone H4 by the Histone-Chaperone RbAp46” (Structure(London, England:1993), 2008):

Target: histone H3 (Xenopus laevis, recombinant full length) (Xenopus laevis) (UniProt P84233)
Assay: cross-linking; BS3 crosslinker in 1.1 M NaCl, 20 mM HEPES (pH 7.5), 10 mM DTT; ~10 uM RbAp46, H3/H4 or RbAp46/H3/H4; room temperature, 30 min; NuPAGE, Coomassie and blots with anti-H3 and anti-H4

“histone H3 (Xenopus laevis, recombinant full length) (from UniProt P84233 1-136) (natural protein)” was tested, and the stoichiometry N was 2.
